Columns and labels:
[1] = biological target: human myeloperoxidase (human) (UniProt P05164); test: SPR; BIAcore 3000; MPO immobilised on a CM5 chip through primary amino groups; lipid-poor apoA-I 0.5 nM to 3 uM flowed over at 20 ul/min in 10 mM PBS pH 7.4; 1:1 binding with drifting baseline model; apparent KD
[2] = biological target: human myeloperoxidase (human); test: SPR; BIAcore 3000; MPO immobilised on a CM5 chip through primary amino groups; apoA-I 0.5 nM to ~3000 nM flowed over at 20 uL/min in 10 mM PBS, pH 7.4; fit to 1:1 binding with a drifting baseline; apparent KD
human myeloperoxidase (human), sequence (P05164 165-745): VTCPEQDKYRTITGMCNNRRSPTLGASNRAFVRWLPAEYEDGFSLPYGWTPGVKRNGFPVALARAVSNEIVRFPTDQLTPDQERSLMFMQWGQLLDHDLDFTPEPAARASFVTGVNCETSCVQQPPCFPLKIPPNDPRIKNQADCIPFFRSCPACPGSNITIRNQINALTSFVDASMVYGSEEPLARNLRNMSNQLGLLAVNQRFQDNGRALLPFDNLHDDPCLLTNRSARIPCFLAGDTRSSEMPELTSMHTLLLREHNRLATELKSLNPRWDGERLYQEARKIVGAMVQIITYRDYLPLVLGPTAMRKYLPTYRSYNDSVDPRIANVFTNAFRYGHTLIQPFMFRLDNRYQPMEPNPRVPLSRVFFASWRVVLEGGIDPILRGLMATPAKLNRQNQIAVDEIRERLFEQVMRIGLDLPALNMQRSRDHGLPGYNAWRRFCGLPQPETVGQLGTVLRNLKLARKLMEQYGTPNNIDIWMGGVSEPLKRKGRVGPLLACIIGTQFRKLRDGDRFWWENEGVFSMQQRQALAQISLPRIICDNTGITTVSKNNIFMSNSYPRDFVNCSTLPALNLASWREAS

- Kd [1]: 75 nM
- Kd [2]: 75.1 nM
- koff [2]: 0.00377 s⁻¹
- kon [2]: 50200 M⁻¹ s⁻¹
Substance: recombinant human apolipoprotein A-I, lipid-poor (from UniProt P02647 19-267) (natural protein)

From paper PMC9010765
